B1: pdTPI (Arabidopsis thaliana) (protein)
chain: MAGSGKFFVGGNWKCNGTKDSIAKLISDLNSATLEADVDVVVSPPFVYIDQVKSSLTDRIDISGQNSWVGKGGAFTGEISVEQLKDLGCKWVILGHSERRHVIGEKDEFIGKKAAYALSEGLGVIACIGEKLEEREAGKTFDVCFAQLKAFADAVPSWDNIVVAYEPVWAIGTGKVASPQQAQEVHVAVRGWLKKNVSEEVASKTRIIYGGSVNGGNSAELAKEEDIDGFLVGGASLKGPEFATIVNSVTSKKVAA
notes: homodimer
B2: cTPI (Arabidopsis thaliana) (protein)
chain: MARKFFVGGNWKCNGTAEEVKKIVNTLNEAQVPSQDVVEVVVSPPYVFLPLVKSTLRSDFFVAAQNCWVKKGGAFTGEVSAEMLVNLDIPWVILGHSERRAILNESSEFVGDKVAYALAQGLKVIACVGETLEEREAGSTMDVVAAQTKAIADRVTNWSNVVIAYEPVWAIGTGKVASPAQAQEVHDELRKWLAKNVSADVAATTRIIYGGSVNGGNCKELGGQADVDGFLVGGASLKPEFIDIIKAAEVKKSA
notes: homodimer

Substrate: O=CC(O)COP(=O)(O)O
Assay: purified protein
Assay type: biochemical, Arabidopsis thaliana
Details: G3P to DHAP direction, 0-4.0 mM G3P (DL-G3P supplied), TEA pH 7.4, 10 mM EDTA, 0.01% BSA, 0.2 mM NADH, apparent constant

Protein | Km [µM] | kcat [s⁻¹] | kcat/Km [M⁻¹ s⁻¹]
B1 | 400 ± 20 | 2340 ± 41.6 | 5.84e+06
B2 | 480 ± 50 | 2560 ± 43.9 | 5.34e+06
